In patent publication US10435456B2, “Compositions and methods for increasing the expression and signalling of proteins on cell surfaces” (THE JOHNS HOPKINS UNIVERSITY, priority 2014, dated 2019):
“Also recorded” adds a separate entry of the source.

T1: mOREG (Mus musculus, UniProt Q920P2)
T1 construct: The mOR-EG full-length construct, containing N-terminal Flag/Rho tags, was a kind gift from Kazushige Touhara; only in the L-EG and L-R-EG constructs) (N, cleaved yes); expressed in transfected cells; host or cells: HEK293T
T1 sequence (Q920P2 1-313): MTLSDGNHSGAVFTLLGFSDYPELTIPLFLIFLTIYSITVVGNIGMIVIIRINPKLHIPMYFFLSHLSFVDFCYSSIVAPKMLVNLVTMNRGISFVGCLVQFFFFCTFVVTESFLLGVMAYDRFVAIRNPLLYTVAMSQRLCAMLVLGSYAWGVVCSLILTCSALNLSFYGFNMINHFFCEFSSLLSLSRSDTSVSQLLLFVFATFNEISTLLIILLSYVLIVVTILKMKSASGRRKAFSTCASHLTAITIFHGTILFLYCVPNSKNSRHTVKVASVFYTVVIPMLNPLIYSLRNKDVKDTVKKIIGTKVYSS

T2: Olfr691 (Mus musculus, UniProt Q8VGW5)
T2 sequence (Q8VGW5 1-322): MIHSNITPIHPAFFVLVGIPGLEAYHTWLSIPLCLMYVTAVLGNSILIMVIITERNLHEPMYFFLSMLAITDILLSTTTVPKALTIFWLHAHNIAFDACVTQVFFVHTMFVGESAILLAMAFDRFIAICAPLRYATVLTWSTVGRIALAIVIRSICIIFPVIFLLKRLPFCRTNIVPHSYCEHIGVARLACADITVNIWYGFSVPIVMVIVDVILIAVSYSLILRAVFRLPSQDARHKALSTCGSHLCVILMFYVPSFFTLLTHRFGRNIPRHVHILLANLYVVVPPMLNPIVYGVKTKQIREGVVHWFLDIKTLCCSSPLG


What was measured:
[1] = target: T1, mOREG; assay: CRE luciferase reporter assay (Firefly:Renilla), mOREG constructs; assay type: cell-based, murine; details: Rho-mOREG, Lucy-mOREG, no RTP1S, 100-300 μM eugenol
Description: The luciferase assay was performed as previously described. Briefly, ORs were transfected into HEK293T cells along with constructs encoding for CREB-dependent luciferase (Firefly) and a constitutively expressed luciferase (Renilla). OR activation leads to a rise in cAMP which drives an increase in Firefly luciferase expression. Firefly activity is normalized to the activity of the Renilla luciferase to control for variation in cell number and transfection efficiency. Data were collected using a FLUOstar Omega automated platereader (BMG LabTech, Cary, N.C.). For some experiments, RTP1S was also transfected.
As mOREG is one of the ORs that reach the cell surface under every condition tested, we expressed the OR with and without the Lucy and Rho tags and assessed its response to eugenol.

[2] = target: T2, Olfr691; assay: CRE luciferase reporter assay (Firefly:Renilla), Olfr691 constructs; details: 0.1-5 mM isovaleric acid
[3] = test system: human GPR160; assay: Surface expression of human GPR160; assay type: cell-based; details: HEK293T cells
[4] = test system: murine Gpr160; assay: Surface expression of murine Gpr160; assay type: cell-based; details: HEK293T cells
[5] = test system: HEK293T cells; assay: Surface immunocytochemistry of Flag-tagged olfactory receptor constructs; assay type: cell-based; design: key to OR surface expression (trafficking): −: No detectable OR surface expression; +: OR surface expression detected in the majority of fields of view (>90% of all fields of view); *: OR surface expression detected in a minority of fields of view (<50% of all fields of view); details: for OR surface expression (trafficking): HEK293T
Description: HEK293T cells were seeded onto 18-mm coverslips coated with poly-L-lysine and transfected with OR constructs with or without accessory proteins (Lipofectamine 2000, Invitrogen). Flag-tagged OR trafficking was assayed using surface immunocytochemistry, as previously described. Briefly, live, non-permeabilized cells at 4° C. were exposed to a rabbit polyclonal anti-Flag antibody in PBS with 0.1% BSA. Subsequently, cells were washed, fixed with 4% paraformaldehyde, permeabilized (0.3% Triton X-100) and then exposed to a mouse monoclonal (M2) anti-Flag antibody. As the external Flag epitope (surface Flag) epitope is ‘blocked’ after binding to the polyclonal Flag antibody, the monoclonal Flag antibody detects only the internal population of ORs. […] Fluorescent secondary antibodies reported the localization of the polyclonal and monoclonal Flag-tags. Cells were visualized for epifluorescence using a Zeiss Axiophot microscope (Thornwood, N.Y.). Images were taken with a CoolSnap Digita Camera (Photometrics, Tucson, Ariz.) and IP Labs software (Biovision, Exton, Pa.). For some experiments, a total of 0.8 μg of accessory plasmids (pcDNA3-RTP1S (modified from RTP1L, kind gift from S. Firestein, Columbia Univ.), pCMV Sport6-Ric8b (purchased from Open Biosystems), and pcDNA3.1-Gαolf (subcloned from a pGEMHE2 Gαolf construct, kind gift from S. Firestein, Columbia Univ.)) or 0.8 μg of an empty pcDNA4.1 vector (OR alone) were co-transfected along with 0.8 μg of the OR. In FIGS. 1 and 2, the immunofluorescent images shown in each row (OR, Rho-OR, Lucy-OR and Lucy-Rho-OR with and without accessory proteins) were transfected and processed simultaneously and image exposures remained constant for each OR. Images represent representative fields of view from at least 4 independent experiments. To assess OR surface expression, the entirety of each coverslip was systematically scanned and scored based on detectable surface immunofluorescence. A ‘+’ was scored for those ORs whose surface expression was detectable in >90% of all fields of view while ORs received an ‘*’ if surface expression was found in <50% of all fields of view. A complete lack of detectable surface expression was scored as a ‘−’. To quantitate cell surface expression using ImageJ (FIG. 14), the background was subtracted from the surface labeled Olfr691 images and the mean fluorescence intensity was measured. The mean intensity was normalized to the mean intensity of the corresponding binary nuclear image, to control for cell number.
ORs were cloned and co-expressed in HEK293T cells without Rho or Lucy tags (OR), with a Rho tag (Rho-OR), with the Lucy tag (Lucy-OR) or with both the Lucy and Rho tags (Lucy-Rho-OR) along with (or without) the chaperone proteins, RTP1S, Ric8b and Gαolf. The cells were then surface labeled with a Flag antibody to detect membrane-associated OR. Images were taken for each OR at equal exposure for all conditions. To assess OR surface expression, the entirety of each coverslip was systematically scanned and scored based on detectable surface immunofluorescence. A ‘+’ was scored for those ORs whose surface expression was detectable in >90% of all fields of view while ORs received an ‘*’ if surface expression was found in <50% of all fields of view. A complete lack of detectable surface expression was scored as a ‘−’.
Many ORs remain orphan receptors due to their inability to traffic in in vitro assays. To establish the trafficking ability of a varied group of ORs, we cloned 15 diverse ORs, the majority of which are orphan receptors which have not been previously reported to reach the cell surface. Live, non-permeabilized HEK 293T cells were surface labeled with a Flag antibody to detect membrane associated receptor and OR surface expression was scored based on detectable surface immunofluorescence. […]

[6] = column 1: OR (Flag tag only, no Rho or Lucy tag), chaperones none
[7] = column 2: OR (Flag tag only), with RTP1S, Ric8b, Gαolf
[8] = column 3: Rho-OR, chaperones none
[9] = column 4: Rho-OR, with RTP1S, Ric8b, Gαolf
[10] = column 5: Lucy-OR, chaperones none
[11] = column 6: Lucy-OR, with RTP1S, Ric8b, Gαolf
[12] = column 7: Lucy-Rho-OR, chaperones none
[13] = column 8: Lucy-Rho-OR, with RTP1S, Ric8b, Gαolf

Molecule | OR surface expression (trafficking) [5, 6] | OR surface expression (trafficking) [5, 7] | OR surface expression (trafficking) [5, 8] | OR surface expression (trafficking) [5, 9] | OR surface expression (trafficking) [5, 10] | OR surface expression (trafficking) [5, 11] | OR surface expression (trafficking) [5, 12] | OR surface expression (trafficking) [5, 13] | also measured
C=CCc1ccc(O)c(OC)c1 [eugenol] |  |  |  |  |  |  |  |  | OR activation (Firefly:Renilla ratio) [1]: dose-dependent activation; also recorded: significantly activated
CC(C)CC(=O)O [isovaleric acid] |  |  |  |  |  |  |  |  | OR activation (Firefly:Renilla ratio) ([2]; Lucy-Rho-Olfr691 with and without RTP1S): responded to isovaleric acid in a dose-dependent manner; OR activation (Firefly:Renilla ratio) ([2]; Rho-Olfr691 co-expressed with RTP1S): dose-dependent increase in the Firefly: Renilla ratio; OR activation (Firefly:Renilla ratio) ([2]; Rho-Olfr691 without RTP1S): not significantly activated at any concentration; also recorded: no concentrations of isovaleric acid activated R-691
Lucy tag: 17-amino acid cleavable signal peptide from LRRC32, MRPQILLLLALLTLGLA (SEQ ID NO:3) (Amino acid sequence of Lucy tag) |  |  |  |  |  |  |  |  | surface expression of human GPR160 [3]: promotes surface expression; surface expression of murine Gpr160 [4]: promotes surface expression
hOR52B2: human homologue of Olfr691, Flag-tagged construct (protein, UniProt Q96RD2 1-323, looked up, Flag tag, human homologue of Olfr691, Flag-tagged construct) Olfactory receptor 52B2: MSHTNVTIFHPAVFVLPGIPGLEAYHIWLSIPLCLIYITAVLGNSILIVVIVMERNLHVPMYFFLSMLAVMDILLSTTTVPKALAIFWLQAHNIAFDACVTQGFFVHMMFVGESAILLAMAFDRFVAICAPLRYTTVLTWPVVGRIALAVITRSFCIIFPVIFLLKRLPFCLTNIVPHSYCEHIGVARLACADITVNIWYGFSVPIVMVILDVILIAVSYSLILRAVFRLPSQDARHKALSTCGSHLCVILMFYVPSFFTLLTHHFGRNIPQHVHILLANLYVAVPPMLNPIVYGVKTKQIREGVAHRFFDIKTWCCTSPLGS | − | − | − | − | + (OR surface expression detected in the majority of fields of view (>90% of all fields of view)) | + (OR surface expression detected in the majority of fields of view (>90% of all fields of view)) | + (OR surface expression detected in the majority of fields of view (>90% of all fields of view)) | + (OR surface expression detected in the majority of fields of view (>90% of all fields of view)) | surface trafficking, Rho-tagged vs Lucy-Rho-tagged OR, in words ([5]; no accessory proteins, 24 h transfection): traffic to the surface with but not without the Lucy tag
hOR51E2: human olfactory receptor, Flag-tagged construct (protein, UniProt Q9H255 1-320, looked up, Flag tag, human olfactory receptor, Flag-tagged construct) Olfactory receptor 51E2: MSSCNFTHATFVLIGIPGLEKAHFWVGFPLLSMYVVAMFGNCIVVFIVRTERSLHAPMYLFLCMLAAIDLALSTSTMPKILALFWFDSREISFEACLTQMFFIHALSAIESTILLAMAFDRYVAICHPLRHAAVLNNTVTAQIGIVAVVRGSLFFFPLPLLIKRLAFCHSNVLSHSYCVHQDVMKLAYADTLPNVVYGLTAILLVMGVDVMFISLSYFLIIRTVLQLPSKSERAKAFGTCVSHIGVVLAFYVPLIGLSVVHRFGNSLHPIVRVVMGDIYLLLPPVINPIIYGAKTKQIRTRVLAMFKISCDKDLQAVGGK | + (OR surface expression detected in the majority of fields of view (>90% of all fields of view)) | + (OR surface expression detected in the majority of fields of view (>90% of all fields of view)) | + (OR surface expression detected in the majority of fields of view (>90% of all fields of view)) | + (OR surface expression detected in the majority of fields of view (>90% of all fields of view)) | + (OR surface expression detected in the majority of fields of view (>90% of all fields of view)) | + (OR surface expression detected in the majority of fields of view (>90% of all fields of view)) | + (OR surface expression detected in the majority of fields of view (>90% of all fields of view)) | + (OR surface expression detected in the majority of fields of view (>90% of all fields of view)) | 
